Laboratory results: the DeepSol protein solubility set

Assay: soluble on expression in E. coli; label from the status in PepcDB or PDB records

Question: Which “soluble on expression in E. coli” value does the source give for “MEFYDARKWCHYQSPVPSYLAYVPDLSTSNFLATYARAAFETNRFWIGLSRFDYFDPYLWDNGRPVTYTNFGTGTGNFVAEHTLNGKWYLYGNGAKNVFVCSYDPAAPPTFPPPFILTTRQSTITSANSCQPGGPISFLFAYSNDLDPQVVKDSWDLSNIDDYSGYSVYAIAKFDVLEEEDIVYFLDKKLATTYVHSHLSNSSLGFNGTTTGSDSLRIIEVGNVEGIESSQFLNFQKFFNNKDVTVCGSVCLILEKRYPNDEDISKTVSLVRYYHGIVYAVSSINPSGGTQSKAIYNLTSRTNGIFCSTDPSGGNQSKTIYNLTSKTNGLCNFAKDKDIAGLVTSVPMFYPPYPIYCANVLVSGQNITELPSMYVPQSIMYYTVFASVEDHGPLDNFQSFDFSWFNSDEPRYIQHLQSNSTVMDGVTSSGVYYIAPEIYTMKVQYNYTNKMEQAMQVRVYTYDGENSADWIPYCD” here?
Answer: not soluble

Question: With “MEGLINALKYLAEHEPIDNFEEIRTRNSPIELPSGLSNFEQNIFLKENLSPKLQNDDSLKTHYWIIREWGGIKSFKQSAENSQLIRQFLSELNSGKLSSGLLKISSLSKLASFIDCERFAIYDSRAIFSLNWLLFKFTNADLFFQPQGRNRELEIRNMNVLFHFSDIKPNYRKPDVSFHQYCGLLQDLAKQVYGKQAKPYHIEMLLFKIATTWICADMDQLIKFDCLRNQDFQTA” as the sequence, how does the “soluble on expression in E. coli” value read?
Answer: not soluble

Question: For “MEGLNVLVTGSTCGLGLHTAKILFKKGANVILTCRDEIRGRHAVESLLSGVSQEQSQKEAERIHLFTLDVTNYNSICNFTDEISRMFKYLHVIINNAGIMGMPFELSVDGIEMHFATNVFGHYVVVERLLPLLLKTDRPDFKSRVIVVSSGLYRNAEAIPQVSKLLGQKTYDYSPKQAYAFSKLANCLYTGALSKMLEPHNVGVYCVRPGFVNGTELGRETHWILRALAAPIIWFIAKTLEQGCETIVYLAETSGNQLKNGSMYYERKEEAYNEMVEVTSIRQVWAILRHLEDTVWKRNTQMTDEQRNHGEMVRELLNESLIV”, which “soluble on expression in E. coli” value is on record?
Answer: not soluble

Question: With “MEGSEEHSTDGEISSSEEEDEDPTPAHAIPARPSSVVITPTSASFVIPRKKWDLQDKTVTLHRSPLCRDEDEKEETGNSSYTRGHKRRRGEVHGCTDESYGKRRHLPPGARAPRAPRAPRVPRAPRSPRAPRSNRATRGPRSESRGAGRSTRKQARQERSQRPLPNKPWFDMSLVKPVSKITFVTLPSPLASLTLEPIQDPFLQSMLAVAAHPEIGAWQKVQPRHELRRSYKTLREFFTKSTNKDTWLDARMQAIQNAGLCTLVAMLEETIFWLQEITYHGDLPLAPAEDILLACAMSLSKVILTKLKELAPCFLPNTRDYNFVKQLFYITCATARQNKVVETLSSSYVKQPLCLLAAYAAVAPAYINANCRRRHDEVEFLGHYIKNYNPGTLSSLLTEAVETHTRDCRSASCSRLVRAILSPGTGSLGLFFVPGLNQ” as the sequence, how does the “soluble on expression in E. coli” value read?
Answer: soluble

Question: Which “soluble on expression in E. coli” value does the source give for “MEGSSSTIARKTWELENSILTVDSPDSTSDNIFYYDDTSQTRFQQEKPWENDPHYFKRVKISALALLKMVVHARSGGTIEIMGLMQGKTDGDTIIVMDAFALPVEGTETRVNAQDDAYEYMVEYSQTNKLAGRLENVVGWYHSHPGYGCWLSGIDVSTQRLNQQHQEPFLAVVIDPTRTVSAGKVEIGAFRTYSKGYKPPDEPVSEYQTIPLNKIEDFGVHCKQYYSLDVTYFKSSLDSHLLDLLWNKYWVNTLSSSPLLGNGDYVAGQISDLAEKLEQAESHLVQSRFGGVVPSSLHKKKEDESQLTKITRDSAKITVEQVHGLMSQVIKDELFNSMRQSNNKSPTDSSDPDPMITY” here?
Answer: soluble

Question: Which “soluble on expression in E. coli” value does the source give for “MEHNQEIMEQFLKLLSENGRAGQSEDLSRLLFYMDGMNRQLDAVRQELQTVKVQLAQAQDTPQKTVLQGMVDGLQSKVRQAQEKLDSLREKIMQCAANAVESFKRVGVTALDKAVSAMGIHKTLEAVQQNISGSLDDARKSIKKVETLGHELRSVGGHLKNAGRAVAGRETQAVDGGQEGRFQAAFLAPMRTAYKMLSSMNNTTLAAIGNVERLETAAEAVREAKKPPVRQTETQEKEQVKELEHKEEPTETQRREKPSIRQTLTEKSEPMDVSDILSDPANIQIFDTVLEESCRQWCDCIGDAPERASGKGFASFFYEVFEQKEQEYKAELKADTRSEKPSIRKALNEKKAEAAARPSPEPERKAPEAAR” here?
Answer: not soluble

Question: With “MEIFQKAKAVRLRSHHDKYLVADEDEESVTQERNGSAGAAKWTVEIIPGSTNLIRLKSAYGKYLTASNKPFLLGATGKKVLQTKPSRLDSSLAWEPIRDSALVKLKTRYGNFLRGNGGLPPWRNSVTHDIPHRSATQEWVLWHIDVVEILPANANSDHHHQHLQLQQPPSPLHHSDSLDFTPGSPSRSDRFFRQESTDSLAVGSPPKSEGRVIYYHVADDDDDVEDDSVEVSSFTFKGNGVEELTMRLKEESNVEDVIVCTRSPLNGKLFPLRLQLPPNNADMTVVLVPKSSKSESLLVLISSQVVALSLMFSVFLDLTVAEKFIK” as the sequence, how does the “soluble on expression in E. coli” value read?
Answer: not soluble

Question: With “MEIGIIGTGNIGGTLARKLIAAGHQVRVANSKGIHGVQSFADEIGATAVDVYGAVKGADAIILSIPLPALASLPNGFFDDLPETVPLIDTSNYYPGLRDPLIPEIDDGMTESVWVSQQLSHPVIKAFNNILAWSLAELGTPKGSASRLAIAVAGDNATLKQIVMNLVDDTGFDAIDAGSLEESWRQQPSTPAYCCDYDAETMKKGLTAAVRGEAASKRDRLPELFGKLGANPTHEDIVAMNRSLNPLEHHHHHH” as the sequence, how does the “soluble on expression in E. coli” value read?
Answer: soluble

Question: For “MEIGPDGKPCRACVSVEDMMKKGREMAEKIKKKESETTPSTSTGAKLHGCPVDKDELGRSTWNLLHTMSVYYPEKPTDEDKDRARSFMSILGKTYPCDFCAKDLRKDLKESPPKVESREAFALWMCQLHNKVNEKTGKPKFECRDVMQRWRDGWKDGSCDY”, which “soluble on expression in E. coli” value is on record?
Answer: soluble

Question: With “MEIINDAELIRSMQRQQHIDAELLTDANVRFEQPLEKNNYVLSEDETPCTRVNYISLDDKTVRKFSFLPSVLMKETAFKTGMCLGSNNLSRLQKAAQQILIVRGYLTSQAIIQPQNMDSGILKLRVSAGEIGDIRYEEKRDGKSAEGSISAFNNKFPLYRNKILNLRDVEQGLENLRRLPSVKTDIQIIPSEEEGKSDLQIKWQQNKPIRFSIGIDDAGGKTTGKYQGNVALSFDNPLGLSDLFYVSYGRGLAHKTDLTDATGTETESGSRSYSVHYSVPVKKWLFSFNHNGHRYHEATEGYSVNYDYNGKQYQSSLAAERMLWRNRLHKTSVGMKLWTRQTYKYIDDAEIEVQRRRSAGWEAELRHRAYLNRWQLDGKLSYKRGTGMRQSMPAPEENGGDILPGTSRMKIITASLDAAAPFILGKQQFFYATAIQAQWNKTPLVAQDKLSIGSRYTVRGFDGEQSLFGERGFYWQNTLTWYFHPNHQFYLGADYGRVSGESAQYVSGKQLMGAVVGFRGGHKVGGMFAYDLFAGKPLHKPKGFQTTNTVYGFNLNYSF” as the sequence, how does the “soluble on expression in E. coli” value read?
Answer: not soluble

Question: For “MEIKEMVSLARKAQKEYQATHNQEAVDNICRAAAKVIYENAAILAREAVDETGMGVYEHKVAKNQGKSKGVWYNLHNKKSIGILNIDERTGMIEIAKPIGVVGAVTPTTNPIVTPMSNIIFALKTCNAIIIAPHPRSKKCSAHAVRLIKEAIAPFNVPEGMVQIIEEPSIEKTQELMGAVDVVVATGGMGMVKSAYSSGKPSFGVGAGNVQVIVDSNIDFEAAAEKIITGRAFDNGIICSGEQSIIYNEADKEAVFTAFRNHGAYFCDEAEGDRARAAIFENGAIAKDVVGQSVAFIAKKANINIPEGTRILVVEARGVGAEDVICKEKMCPVMCALSYKHFEEGVEIARTNLANEGNGHTCAIHSNNQAHIILAGSELTVSRIVVNAPSATTAGGHIQNGLAVTNTLGCGSWGNNSISENFTYKHLLNISRIAPLNSSIHIPDDKEIWEL”, which “soluble on expression in E. coli” value is on record?
Answer: soluble

Question: For “MEIQHLDGHIVKVQRDKVTWPGARLRKKDEGMPSLEDNNKKGMLVVTFDVEFPKTELSDEQKAQIIEILQQNTVKPKAYNGL”, which “soluble on expression in E. coli” value is on record?
Answer: not soluble

Question: For “MEIRTFLERALKEDLGHGDLFERVLEKDFKATAFVRAKQEGVFSGEKYALELLEMTGIECVQTIKDKERFKPKDALMEIRGDFSMLLKVERTLLNLLQHSSGIATLTSRFVEALNSHKVRLLDTRKTRPLLRIFEKYSVLNGGASNHRLGLDDALMLKDTHLRHVKDLKSFLTHARKNLPFTAKIEIECESFEEAKNAMNAGADIVMCDNLSVLETKEIAAYRDAHYPFVLLEASGNISLESINAYAKSGVDAISVGALIHQATFIDMHMKMA”, which “soluble on expression in E. coli” value is on record?
Answer: soluble

Question: For “MEISGEEDKEEAVTLPKEVSKISISDGNKFVYQILNGPNEQCFENFRMDKPVFYKLCDLLQTRGLLRHTNRIKIEAQLAIFLFIIGHNLRTRAVQELFCYSGETISRHFNNVLNAVIAISKDFFQPNSNSDTLENDDPYFKDCVGVVDSFHIPVMVGVDEQGPFRNGNGLLTQNVLAASSFDLRFNYVLAGWEGSASDQQVLNAALTRRNKLQVPQGKYYIVDNKYPNLPGFIAPYHGVSTNSREEAKEMFNERHKLLHRAIHRTFGALKERFPILLSAPPYPLQTQVKLVIAACALHNYVRLEKPDDLVFRMFEEETLAEAGEDREVALEEEQVEIVGQEHGFRPEEVEDSLRLRDEIASELWNHYVQNMSTF”, which “soluble on expression in E. coli” value is on record?
Answer: soluble

Question: For “MEITDPGDFRQRIETSFARQGVVQAINAEISRIEHRLVEIELPFHEKLTQQHGILHAGVIAAGLDTACTYAAYTIIEPEASLLTIEFKVNLMSPGRGERFLFRGEIIKPGNNLIVADGRAYALSDGPAKLIASMTGTMMVVKGREDITGLEHHHHHH”, which “soluble on expression in E. coli” value is on record?
Answer: soluble

Question: Which “soluble on expression in E. coli” value does the source give for “MEIYHQYIKLRKQFGRFPKFGDEGSEMLADIRPNEDHGKEYIPRNPVTTVTQCVPEMSEHEANTNAVILVNKAMSHVEGGWPKDVDYTEAEHTIRYRKKVEKDEDYIRTVVQLGSSVEDLIKQNNAVDIYQEYFTNVTMDHTSEAPHVKTVTVFKDPNNIKRSASYVNWHPDGSVPKVVVAYSILQFQQQPAGMPLSSYIWDVNNPNTPEYEMVPTSQICCAKFNLKDNNLVGAGQYNGQLAYFDVRKGNGPVEATPIDISHRDPIYDFAWLQSKTGTECMTVSTDGNVLWWDLRKMNECVENMPLKEKNSETTVGGVCLEYDTNAGPTNFMVGTEQGQIFSCNRKAKNPVDRVKYVLSGHHGPIYGLRRNPFNSKYFLSIGDWTARVWVEDTAVKTPILTTKYHPTYLTGGTWSPSRPGVFFTIKMDGAMDVWDLYYKHNEPTLTVQVSDLALTAFAVQESGGTVAVGTSDGCTSVLQLSTGLSEASPAEKANINAMFERETTREKNLEKAIKEAKVKARKEQGRRDEVKDNVTEEQLKALEDEFFKTTDPAVGGGYGAGEGAAAE” here?
Answer: not soluble

Question: With “MEKASSPEKWLAKVSVTLTKAKPDEIWPLFTDFFNLHKWLPTLATCHGVHGNNGEQGCIRFCSGFSIGSNGVDSAARWSKEKLVAVNPVERVMRYEIVESNTGFESYVSTVKILPRGEDGCVIEWSFTVDPVRGLSLENLVKKYEKALEIITKNMEEDALRRRESSS” as the sequence, how does the “soluble on expression in E. coli” value read?
Answer: soluble

Question: With “MEKEQLIEIANTIMPFGKYKGRRLIDLPEEYLLWFARKDEFPAGKLGELMQITLLIKNEGLTQLVQPLKRPL” as the sequence, how does the “soluble on expression in E. coli” value read?
Answer: soluble

Question: For “MEKFLVIAGPNAIESEELLLKVGEEIKRLSEKFKEVEFVFKSSFDKANRSSIHSFRGHGLEYGVKALRKVKEEFGLKITTDIHESWQAEPVAEVADIIQIPAFLCRQTDLLLAAAKTGRAVNVKKGQFLAPWDTKNVVEKLKFGGAKEIYLTERGTTFGYNNLVVDFRSLPIMKQWAKVIYDATHSVQLPGGLGDKSGGMREFIFPLIRAAVAVGCDGVFMETHPEPEKALSDASTQLPLSQLEGIIEAILEIREVASKYYETIPVK”, which “soluble on expression in E. coli” value is on record?
Answer: soluble
